Paper PMC3265130 (2011)

Target: T1, H3(1-15Y)K9me3 (Homo sapiens, H3K9me3)
T1 chain: ARTKQTARKSTGGKAY
Test: ITC

Kd: 300 nM
B1: Su(Var)205 17-76 (protein)
chain: not shown
